Among the data in publication PMC2722949 (Journal of molecular biology, 2009) are Kd values, retold here.

Where no end group is shown, it is not given here. [ ]: non-standard residue; d: D form. pY = N[C@@H](Cc1ccc(OP(=O)(O)O)cc1)C(=O)O

One may read the Kd as the constant that tells how readily two partners part at equilibrium. A high value points to lower affinity.

What all share (assay): NMR titration
For one experiment, the target named is Btk SH2 domain H364D (UniProt Q06187 270-387, H364D).
Experiment [1] has as its target Btk SH2 domain, wild type (UniProt Q06187 270-387).
In a further experiment the target is Btk SH2 domain S371P (UniProt Q06187 270-387, S371P).
In experiment [2] the target is Itk SH2 domain, wild type (mouse (the paper calls its residue numbers 'mouse numbering')).
The target in experiment [3] is Itk SH2 domain E308A/K309A double mutant (mouse (the paper calls its residue numbers 'mouse numbering')).

Sequence of Btk SH2 domain S371P (Q06187 270-387 S371P): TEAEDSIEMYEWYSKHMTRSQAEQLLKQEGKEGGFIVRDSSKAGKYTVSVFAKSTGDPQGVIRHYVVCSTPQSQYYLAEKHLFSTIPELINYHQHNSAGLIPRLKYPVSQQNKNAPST
Sequence of Btk SH2 domain H364D (Q06187 270-387 H364D): as the sequence (Q06187 270-387 S371P) above, with H95D, P102S counted along it
Sequence of Btk SH2 domain, wild type (Q06187 270-387): as the sequence (Q06187 270-387 S371P) above, with P102S counted along it

Turning to GDG[pY]EEISPLLL [Btk SH2 phospho-peptide ligand (GDGpYEEISPLLL)], the Kd with Btk SH2 domain H364D stood at 500 ± 200 µM; in experiment [1] it was 450 ± 40 µM; with Btk SH2 domain S371P it was 600 ± 110 µM.
On to AD[pY]EPP [phospho-SLP76 peptide (ADpYEPP)], for which the dissociation constant (Kd) is 380 µM in experiment [2] and 480 µM in experiment [3].
